How the values were obtained:
HeLa Kyoto [1] = assay: solubility in G1/S (NP-40 vs SDS abundance) (log2 ratio); higher = more soluble; settings: cell cycle stage: G1/S
HeLa Kyoto [2] = assay: melting temperature (median over replicates), in situ; higher = more thermally stable
HeLa Kyoto [3] = assay: solubility change mitosis vs G1/S (difference of NP-40 vs SDS log2 ratios) (log2 ratio difference); higher = more soluble in mitosis
HeLa Kyoto [4] = assay: thermal stability score vs G1/S (z-score of summed log2 fold changes over temperatures); higher = more thermally stable than in G1/S
[5] = cell cycle stage: early G1 (4.5 h after nocodazole release)
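For melting temperature (median over replicates), in situ in this document: HeLa Kyoto cells synchronized by double thymidine or nocodazole block, proteins quantified by TMT10plex mass spectrometry, three independent biological replicates.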
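For solubility change mitosis vs G1/S (difference of NP-40 vs SDS log2 ratios) in this document: synchronized HeLa Kyoto cells (double thymidine block for G1/S, nocodazole release for mitosis), protein amounts in NP-40 versus SDS lysates quantified by mass spectrometry, three biological replicates.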
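For solubility in G1/S (NP-40 vs SDS abundance) in this document: HeLa Kyoto cells arrested at G1/S by double thymidine block, proteins quantified by TMT10plex mass spectrometry in mild NP-40 versus SDS extracts, three biological replicates.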
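For thermal stability score vs G1/S (z-score of summed log2 fold changes over temperatures) in this document: synchronized HeLa Kyoto cells, proteins quantified by TMT10plex mass spectrometry, three biological replicates, mitosis taken 0.5 h after nocodazole release, G1/S directly after double thymidine block.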

Row | Sequence | solubility in G1/S (log2) (HeLa Kyoto [1]) | melting temperature (HeLa Kyoto [2]; cell cycle stage: G1/S) [°C] | melting temperature (HeLa Kyoto [2]; cell cycle stage: mitosis) [°C] | solubility change mitosis (log2) (HeLa Kyoto [3]) | thermal stability score (HeLa Kyoto [4]; [5]) | thermal stability score (HeLa Kyoto [4]; cell cycle stage: mitosis)
1 | MTDGILGKAATMEIPIHGNGEARQLPEDDGLEQDLQQVMVSGPNLNETSIVSGGYGGSGDGLIPTGSGRHPSHSTTPSGPGDEVARGIAGEKFDIVKKWGINTYKCTKQLLSERFGRGSRTVDLELELQIELLRETKRKYESVLQLGRALTAHLYSLLQTQHALGDAFADLSQKSPELQEEFGYNAETQKLLCKNGETLLGAVNFFVSSINTLVTKTMEDTLMTVKQYEAARLEYDAYRTDLEELSLGPRDAGTRGRLESAQATFQAHRDKYEKLRGDVAIKLKFLEENKIKVMHKQLLLFHNAVSAYFAGNQKQLEQTLQQFNIKLRPPGAEKPSWLEEQ [ARFIP2] | 0.602 | 51.1 | 50.9 | 0.0365 | -0.945 | -2.87
2 | MTDNIPLQPVRQKKRMDSRPRAGCCEWLRCCGGGEARPRTVWLGHPEKRDQRYPRNVINNQKYNFFTFLPGVLFNQFKYFFNLYFLLLACSQFVPEMRLGALYTYWVPLGFVLAVTVIREAVEEIRCYVRDKEVNSQVYSRLTARGTVKVKSSNIQVGDLIIVEKNQRVPADMIFLRTSEKNGSCFLRTDQLDGETDWKLRLPVACTQRLPTAADLLQIRSYVYAEEPNIDIHNFVGTFTREDSDPPISESLSIENTLWAGTVVASGTVVGVVLYTGRELRSVMNTSNPRSKIGLFDLEVNCLTKILFGALVVVSLVMVALQHFAGRWYLQIIRFLLLFSNIIPISLRVNLDMGKIVYSWVIRRDSKIPGTVVRSSTIPEQLGRISYLLTDKTGTLTQNEMIFKRLHLGTVAYGLDSMDEVQSHIFSIYTQQSQDPPAQKGPTLTTKVRRTMSSRVHEAVKAIALCHNVTPVYESNGVTDQAEAEKQYEDSCRVYQASSPDEVALVQWTESVGLTLVGRDQSSMQLRTPGDQILNFTILQIFPFTYESKRMGIIVRDESTGEITFYMKGADVVMAGIVQYNDWLEEECGNMAREGLRVLVVAKKSLAEEQYQDFEARYVQAKLSVHDRSLKVATVIESLEMEMELLCLTGVEDQLQADVRPTLETLRNAGIKVWMLTGDKLETATCTAKNAHLVTRNQDIHVFRLVTNRGEAHLELNAFRRKHDCALVISGDSLEVCLKYYEYEFMELACQCPAVVCCRCAPTQKAQIVRLLQERTGKLTCAVGDGGNDVSMIQESDCGVGVEGKEGKQASLAADFSITQFKHLGRLLMVHGRNSYKRSAALSQFVIHRSLCISTMQAVFSSVFYFASVPLYQGFLIIGYSTIYTMFPVFSLVLDKDVKSEVAMLYPELYKDLLKGRPLSYKTFLIWVLISIYQGSTIMYGALLLFESEFVHIVAISFTSLILTELLMVALTIQTWHWLMTVAELLSLACYIASLVFLHEFIDVYFIATLSFLWKVSVITLVSCLPLYVLKYLRRRFSPPSYSKLTS [ATP9A] | -0.6 | 57.4 | 58.4 | 0.0184 | -4.08 | -4.01
3 | MTDQAFVTLTTNDAYAKGALVLGSSLKQHRTTRRLVVLATPQVSDSMRKVLETVFDEVIMVDVLDSGDSAHLTLMKRPELGVTLTKLHCWSLTQYSKCVFMDADTLVLANIDDLFDREELSAAPDPGWPDCFNSGVFVYQPSVETYNQLLHLASEQGSFDGGDQGILNTFFSSWATTDIRKHLPFIYNLSSISIYSYLPAFKVFGASAKVVHFLGRVKPWNYTYDPKTKSVKSEAHDPNMTHPEFLILWWNIFTTNVLPLLQQFGLVKDTCSYVNVLSDLVYTLAFSCGFCRKEDVSGAISHLSLGEIPAMAQPFVSSEERKERWEQGQADYMGADSFDNIKRKLDTYLQ [GYG1] | 0.0958 | 56.3 | 52.1 | -0.149 | -3.5 | -5.58
4 | MTDSKYFTTNKKGEIFELKAELNNEKKEKRKEAVKKVIAAMTVGKDVSSLFPDVVNCMQTDNLELKKLVYLYLMNYAKSQPDMAIMAVNSFVKDCEDPNPLIRALAVRTMGCIRVDKITEYLCEPLRKCLKDEDPYVRKTAAVCVAKLHDINAQMVEDQGFLDSLRDLIADSNPMVVANAVAALSEISESHPNSNLLDLNPQNINKLLTALNECTEWGQIFILDCLSNYNPKDDREAQSICERVTPRLSHANSAVVLSAVKVLMKFLELLPKDSDYYNMLLKKLAPPLVTLLSGEPEVQYVALRNINLIVQKRPEILKQEIKVFFVKYNDPIYVKLEKLDIMIRLASQANIAQVLAELKEYATEVDVDFVRKAVRAIGRCAIKVEQSAERCVSTLLDLIQTKVNYVVQEAIVVIRDIFRKYPNKYESIIATLCENLDSLDEPDARAAMIWIVGEYAERIDNADELLESFLEGFHDESTQVQLTLLTAIVKLFLKKPSETQELVQQVLSLATQDSDNPDLRDRGYIYWRLLSTDPVTAKEVVLSEKPLISEETDLIEPTLLDELICHIGSLASVYHKPPNAFVEGSHGIHRKHLPIHHGSTDAGDSPVGTTTATNLEQPQVIPSQGDLLGDLLNLDLGPPVNVPQVSSMQMGAVDLLGGGLDSLVGQSFIPSSVPATFAPSPTPAVVSSGLNDLFELSTGIGMAPGGYVAPKAVWLPAVKAKGLEISGTFTHRQGHIYMEMNFTNKALQHMTDFAIQFNKNSFGVIPSTPLAIHTPLMPNQSIDVSLPLNTLGPVMKMEPLNNLQVAVKNNIDVFYFSCLIPLNVLFVEDGKMERQVFLATWKDIPNENELQFQIKECHLNADTVSSKLQNNNVYTIAKRNVEGQDMLYQSLKLTNGIWILAELRIQPGNPNYTLSLKCRAPEVSQYIYQVYDSILKN [AP2B1] | 0.198 | 51.6 | 52 | -0.0379 | -1.91 | 3.3
5 | MTDTRRRVKVYTLNEDRQWDDRGTGHVSSGYVERLKGMSLLVRAESDGSLLLESKINPNTAYQKQQDTLIVWSEAENYDLALSFQEKAGCDEIWEKICQVQGKDPSVDITQDLVDESEEERFDDMSSPGLELPSCELSRLEEIAELVASSLPSPLRREKLALALENEGYIKKLLELFHVCEDLENIEGLHHLYEIIKGIFLLNRTALFEVMFSEECIMDVIGCLEYDPALSQPRKHREFLTKTAKFKEVIPISDPELKQKIHQTYRVQYIQDMVLPTPSVFEENMLSTLHSFIFFNKVEIVGMLQEDEKFLTDLFAQLTDEATDEEKRQELVNFLKEFCAFSQTLQPQNRDAFFKTLSNMGILPALEVILGMDDTQVRSAATDIFSYLVEYNPSMVREFVMQEAQQNDDVSKKLTEQKITSKDILLINLIIEHMICDTDPELGGAVQLMGLLRTLVDPENMLATANKTEKTEFLGFFYKHCMHVLTAPLLANTTEDKPSKDDFQTAQLLALVLELLTFCVEHHTYHIKNYIINKDILRRVLVLMASKHAFLALCALRFKRKIIGLKDEFYNRYIMKSFLFEPVVKAFLNNGSRYNLMNSAIIEMFEFIRVEDIKSLTAHVIENYWKALEDVDYVQTFKGLKLRFEQQRERQDNPKLDSMRSILRNHRYRRDARTLEDEEEMWFNTDEDDMEDGEAVVSPSDKTKNDDDIMDPISKFMERKKLKESEEKEVLLKTNLSGRQSPSFKLSLSSGTKTNLTSQSSTTNLPGSPGSPGSPGSPGSPGSVPKNTSQTAAITTKGGLVGLVDYPDDDEDDDEDEDKEDTLPLSKKAKFDS [PPP4R3A] | 0.0151 | 52.9 | 52 | -0.214 | -0.659 | 0.337
